Test results: patent US8536117B2, “Oxidant resistant apolipoprotein A-1 and mimetic peptides” (The Cleveland Clinic Foundation, priority 2007, dated 2013)
Changes are numbered by the printed parent chain. “Also recorded” adds a separate entry of the source.

B1: rh-ApoA1 3MV: rh-ApoA1 with the three internal methionines converted to valines (protein, UniProt P02647 25-267, looked up, variant M86V M112V M148V)
Apolipoprotein A-I: DEPPQSPWDRVKDLATVYVDVLKDSGRDYVSQFEGSALGKQLNLKLLDNWDSVTSTFSKLREQLGPVTQEFWDNLEKETEGLRQEVSKDLEEVKAKVQPYLDDFQKKWQEEVELYRQKVEPLRAELQEGARQKLHELQEKLSPLGEEVRDRARAHVDALRTHLAPYSDELRQRLAARLEALKENGGARLAEYHAKATEHLSTLSEKAKPALEDLRQGLLPVLESFKVSFLSALEEYTKKLNTQ
B2: rh-ApoA1 4WL: rh-ApoA1 with each of the four tryptophan residues altered to leucine (protein, UniProt P02647 25-267, looked up, variant W8L W50L W72L W108L)
Apolipoprotein A-I: B1 Apolipoprotein A-I with W8L, W50L, W72L, V86M, W108L, V112M, V148M
B3: rh-ApoA1 4WF: rh-ApoA1 with each of the four tryptophan residues altered to phenylalanine (protein, UniProt P02647 25-267, looked up, variant W8F W50F W72F W108F)
Apolipoprotein A-I: B1 Apolipoprotein A-I with W8F, W50F, W72F, V86M, W108F, V112M, V148M

Assays:
[1] = DMPC emulsion clearance assay (lipid binding); format: biochemical; settings: 25 μg protein, 125 μg DMPC, absorbance at 325 nm, 24° C.
Experimental: FIGS. 7 (A-B) illustrate plots showing that rh-ApoA1 4WF binds lipid as well as rh-ApoA1 and its lipid binding activity is resistant to MPO mediated oxidation. A. Dimyristoyl phosphatidylcholine (DMPC) emulsions (125 μg) were prepared and incubated without addition (solid thick line) or with the addition of 25 μg rh-ApoA1 (solid thin line) or rh-ApoA1 4WF (dotted line). Lipid binding and solubilization was monitored by loss of turbidity by reading absorbance at 325 nm over time at 24° C. […] B. rh-ApoA1 (filled circles, solid line) and rh-ApoA1 4WF (open circles, dashed line) were subjected to modification by MPO at varying H2O2:ApoA1 mole ratios. These proteins were then assayed for lipid binding activity by prevention of phospholipase C dependent LDL aggregation. Data are normalized to the lipid binding activity of rh-ApoA1 treated in the absence of H2O2. Data are means±S.D. of triplicate determinations. *, p<0.05; and **, p<0.001 vs. rh-ApoA1 4WF at the same H2O2: ApoA1 mole ratio, respectively, by two tailed t-test.

[2] = tested on: human low density lipoprotein; experiment: Lipid binding activity assay: inhibition of phospholipase C (PLC)-mediated aggregation of LDL; format: biochemical; settings: for lipid binding activity after MPO modification: PLC mediated LDL aggregation assay, MPO at varying H2O2:ApoA1 mole ratios
Experimental: (§1) MPO at a final concentration of 57 nmol/L, prepared as previously described, was added to ApoA1 at 100 μg/mL (3.5 μmol/L) that had been extensively dialyzed against MPO reaction buffer. The reaction was initiated by adding hydrogen peroxide at varying mole ratios to ApoA1 in 4 aliquots at 15-minute intervals at 37° C., and continuing the incubation for 90 minutes, at which time 2 mmol/L L-methionine was added to quench the reaction. For chemical modification of ApoA1, sodium hypochlorite (NaOCI) was added to 100 μg/mL ApoA1 in MPO buffer at varying concentrations in 4 aliquots at 15 minutes intervals at 37° C. After a total incubation time of 60 minutes, 2 mmol/L L-metbionine was added to quench the reaction.
Lipid binding activity of ApoA1 was assessed via the inhibition of phospholipase C (PLC)-mediated aggregation of human low density lipoprotein, performed as previously described. We have previously shown that this assay give results similar to those observed by the DMPC dispersion clearance assay, but it is more sensitive and requires less ApoA1. The final concentration of apoA1 used in this assay as 12.5 μg/mL. which was sufficient to decrease the initial rate LDL aggregation by ≈75%.

[3] = tested on: RAW 264.7 murine macrophage cells; experiment: MPO/H2O2/Cl- modification of ApoA1, then ABCA1-dependent cholesterol efflux assay; format: cell-based; settings: for MPO mediated loss of cholesterol acceptor activity, high dose: H2O2:apoAI = 15:1, 3MV with or without the N-terminal methionine; for loss of cholesterol acceptor activity: MPO modification at H2O2:ApoA1 ratio of 1.4; for ABCA1-dependent cholesterol acceptor activity after MPO modification: MPO/H2O2/Cl- system at varying (increasing) H2O2:ApoA1 mole ratios
Experimental: as §1
(§2) RAW 264.7 murine macrophage cells were labeled with [3H] cholesterol and treated with 0.3 mmol/L 8Br-cAMP to induce ABCA1 activity, as previously described. The cells were washed and chased for 4 hours in serum-free medium in the presence of 0.3 mmol/L 8Br-cAMP and the presence or absence of various ApoA1 preparations. The radioactivity in the chase media was determined after brief centrifugation to pellet debris. Radioactivity in the cells was determined by extraction in hexane:isopropanol (3:2) with the solvent evaporated in a scintillation vial prior to counting. The percent cholesterol efflux was calculated as 100×(medium dpm)/(medium dpm+cell dpm).

[4] = tested on: RAW 264.7 murine macrophage cells; experiment: ABCA1-dependent cholesterol efflux assay; format: cell-based; settings: unoxidised protein/peptide, 4 hr incubation with [3H]cholesterol labeled RAW264.7 cells pretreated with 0.3 mM 8Br-cAMP
Experimental: ApoA1 (filled circles, solid line) and reductively methylated ApoA1 (open circles, dashed line) were subjected to modification by MPO at varying H2O2:ApoA1 mole ratios. These proteins were then assayed for ABCA1 dependent cellular cholesterol acceptor activity during a 4 hr incubation at 5 μg/ml with cholesterol labeled RAW264.7 cells, which had been treated with 0.3 mM 8Br-cAMP to induce ABCA1. Data are means±S.D. of triplicate determinations, when no bars appear, the S.D. is within the symbol.
as §2

[5] = Alpha helix content by CD (K2d algorithm); format: physicochemical; settings: for alpha helix content: K2d algorithm, unmodified protein; for loss of alpha helix content after MPO modification: MPO/H2O2 dose dependent
Source text: We examined the role of ApoA1 tryptophan residues next by altering each of the four tryptophan residues to either leucine (rh-ApoA1 4WL) or phenylalanine (rh-ApoA1 4WF). […] Thus, the loss of efflux and lipid binding activity of the 4WL variant cannot be attributed to loss of helical content.

[6] = tested on: RAW 264.7 murine macrophage cells; experiment: HOCl (sodium hypochlorite) modification of ApoA1, then ABCA1-dependent cholesterol efflux assay; format: cell-based; settings: increasing doses of HOCl (varying HOCl:ApoA1 mole ratios)
Experimental: as §1, §2

Molecule	lipid binding activity (DMPC clearance) [1]	lipid binding activity after MPO modification [2]	MPO mediated loss of cholesterol acceptor activity, high dose [3]	loss of cholesterol acceptor activity [3]	ABCA1-dependent cholesterol acceptor activity after MPO modification [3]	ABCA1-dependent cholesterol acceptor activity [4]	alpha helix content [5] [%]	loss of alpha helix content after MPO modification [5]	cholesterol acceptor (efflux) activity after HOCl treatment [6]	decrease of the initial rate of LDL aggregation ([2]; apoA1 final concentration 12.5 μg/mL)	ABCA1-dependent cholesterol acceptor activity ([4]; listed as 4WL variant)	lipid binding activity (DMPC clearance) ([1]; listed as 4WF variant)	ABCA1-dependent cholesterol acceptor activity ([4]; listed as 4WF variant)
rh-ApoA1: recombinant human ApoA1, with an additional methionine initiation codon and a 6-his tag at the N-terminus	equivalent activity	diminished lipid binding activity	equally susceptible	negligible loss	inhibited by increasing MPO induced oxidation	yielded ABCA1 dependent cholesterol acceptor activity	57	susceptible to loss of alpha helical content	impaired by increasing doses of HOCl				
methylated ApoA1: ApoA1 subjected to reductive methylation, leading to 92% lysine modification					declined in a similar fashion	robust and equivalent		similarly susceptible					
ApoA1: human plasma-derived ApoA1					declined in a similar fashion	robust and equivalent		similarly susceptible		≈ 75%			
B1			equally susceptible	lost about half of its cholesterol acceptor activity	more sensitive to loss of cholesterol acceptor activity at low molar ratios								
B2							79				lost the majority of this activity		
B3		resistant to MPO mediated inhibition; also recorded: did not loose its lipid binding activity			maintained this activity even at an H2O2:ApoA1 ratio of 15		77	susceptible to loss of alpha helical content	resistant to this treatment			equivalent activity	largely retained this activity
